The source of these data is patent US20060115475A1 (published 2006).

Assay [1] addresses T1, soluble human TLR3 extracellular domain (human, UniProt O15455 24-703).
T1 construct: also called hTLR3 extracellular domain; extracellular domain of human TLR3
Nature of the assay: Biacore 2000, mAb captured on protein A, TLR3 in solution, 25 C, 1:1 model; mAb capture (mAb on protein A chip, TLR3 in solution). For orientation: Surface plasmon resonance follows binding to a sensor surface in real time, without labels.
Protocol: Measurement of binding affinity by Biacore was performed by mAb capture and TLR3 capture techniques. MAb capture analysis was performed at 25° C. using a Biacore 2000 biosensor equipped with a CM5 chip with surfaces modified with protein A (6,000 RU) at 25° C. by standard amine coupling. Antibody was diluted to 30 nM and captured for one minute on different protein A surfaces. TLR3 was injected at 0, 0.1, 0.3, 1.0, 3.0, and 9.0 nM and associations and dissociations were monitored for 5 minutes. The protein A modified surfaces were regenerated using two 6-second pulses 100 mM phosphoric acid. Available binding data sets were fit to a 1:1 interaction model (CLAMP™). The rate constants and their ratio (KD=kd/kₐ) and the error of fit carried over the estimate of the apparent equilibrium constants were calculated.

The target in assay [2] is T2, Human hexa-histidine-TLR3 (human, UniProt O15455 24-703, limits assumed).
T2 construct: Captured by anti-His antibody on a CM5 chip; also called TLR3 (captured on the chip surface); not shown: hexa-histidine tag
As to the kind of experiment: Biacore 3000, hexa-histidine-TLR3 captured on anti-His antibody, mAb in solution, 25 C, 1:1 model.

For assay [3], the target named is T1, soluble human TLR3 extracellular domain. As to the kind of experiment: ELISA, coated soluble hTLR3 extracellular domain, anti-mouse IgG-HRP.
For assay [4] the target is unchanged. As to the kind of experiment: ELISA, TLR3 binding assay as in Example 20. (In general: An ELISA detects its analyte on a solid surface through an enzyme-linked reagent.)
The target is the same in assay [5]. Nature of the assay: ELISA, TLR3 binding assay.

As usually defined, the Kd is the equilibrium constant for the complex coming apart. Higher therefore signals lower affinity. By EC50 is commonly meant the concentration that produces a half-maximal response. Low values mean a more potent agent, high ones a less potent agent.

B1: murine anti-hTLR3 antagonist mAb 1068 (antibody, mouse IgG1, V domains shown)
VH: QVQLQQPGAELVQPGTSVRLSCKASGYIFTTYWIHWVKQRPGQGLEWIGEINPNNGRINYNEKFKTKATLTVDKSSSTAYMQLSSLTSEDSAVYYCTRVGVMITTFPYWGQGTLVTVSA
VL: DIQMTQSPASLSASVGETVTITCRASGNIHNYLAWYQQKQGKSPQLLVYNAKTLADGVPSRFSGSESGTQYSLKINSLQPEDFGSYYCQHFWSTPFTFGSGTKLELK
notes: also called C1068; mAb C1068
Consider B1, for which the Kd in assay [1] worked out at 1.2 nM; in assay [2], 0.316 nM. Moreover, the EC50 in assay [3] was 0.008 µg/mL.

B2: human-adapted C1068 variant mAb HBV6 (Vκ CDR1 H30S in the HV1/LV1 background) (antibody, V domains shown)
VH: QVQLVQSGAEVKKPGASVKVSCKASGYTFTTYWIHWVRQAPGQRLEWMGEINPNNGRINYNEKFKTRVTITRDTSASTAYMELSSLRSEDTAVYYCARVGVMITTFPYWGQGTLVTVSS
VL: DIQMTQSPSSLSASVGDRVTITCRASGNISNYLAWYQQKPGKAPKLLIYNAKTLADGVPSRFSGSGSGTDFTLTISSLQPEDFATYYCQHFWSTPFTFGQGTKLEIK
notes: Made in the HV1/LV1 background; not shown: human kappa light chain constant region
Take B2: the EC50 in assay [4] was 1.22 µg/mL; in assay [5], more than 1 µg/mL.
